Sequences and labels used below:
B1: target 1 insA 3' of 13,insG 3' of 1 (mixed)
RNA 1: CACCCGUGCAAAAAUGCAGGGGUCUAAAACUGAGCGGAUAACCUCUCUAUGG
RNA 2: GGGAAUGGAUCCACAUCUACGAAUUCGUACCAUAGAGAGAGUUAUCCGCUCAGCCGAGAUCGGAAGAGCACACGU
B2: target 1 insG 3' of 7,insA 3' of 5 (mixed)
RNA 1: CACCCGUGCAAAAAUGCAGGGGUCUAAAACUGAGCGGAUAACCUCUCUAUGG
RNA 2: GGGAAUGGAUCCACAUCUACGAAUUCGUACCAUAGAGAGGUUAUCGCGACUCACCGAGAUCGGAAGAGCACACGU
B3: target 1 del8,del14 (mixed)
RNA 1: CACCCGUGCAAAAAUGCAGGGGUCUAAAACUGAGCGGAUAACCUCUCUAUGG
RNA 2: GGGAAUGGAUCCACAUCUACGAAUUCGUACCAUAGAGGGUUACCGCUCACCGAGAUCGGAAGAGCACACGU
B4: target 1 del8,del19 (mixed)
RNA 1: CACCCGUGCAAAAAUGCAGGGGUCUAAAACUGAGCGGAUAACCUCUCUAUGG
RNA 2: GGGAAUGGAUCCACAUCUACGAAUUCGUACCAAGAGAGGUUACCGCUCACCGAGAUCGGAAGAGCACACGU
B5: target 1 C7G,U8A (mixed)
RNA 1: CACCCGUGCAAAAAUGCAGGGGUCUAAAACUGAGCGGAUAACCUCUCUAUGG
RNA 2: GGGAAUGGAUCCACAUCUACGAAUUCGUACCAUAGAGAGGUUAAGCGCUCACCGAGAUCGGAAGAGCACACGU
B6: target 1 G17A,A18U (mixed)
RNA 1: CACCCGUGCAAAAAUGCAGGGGUCUAAAACUGAGCGGAUAACCUCUCUAUGG
RNA 2: GGGAAUGGAUCCACAUCUACGAAUUCGUACCAUUAAGAGGUUAUCCGCUCACCGAGAUCGGAAGAGCACACGU
B7: target 1 C6G,U10C (mixed)
RNA 1: CACCCGUGCAAAAAUGCAGGGGUCUAAAACUGAGCGGAUAACCUCUCUAUGG
RNA 2: GGGAAUGGAUCCACAUCUACGAAUUCGUACCAUAGAGAGGUCAUCGGCUCACCGAGAUCGGAAGAGCACACGU
B8: target 1 A9U,A16C (mixed)
RNA 1: CACCCGUGCAAAAAUGCAGGGGUCUAAAACUGAGCGGAUAACCUCUCUAUGG
RNA 2: GGGAAUGGAUCCACAUCUACGAAUUCGUACCAUAGCGAGGUUUUCCGCUCACCGAGAUCGGAAGAGCACACGU
B9: target 1 insC 3' of 18,insG 3' of 4 (mixed)
RNA 1: CACCCGUGCAAAAAUGCAGGGGUCUAAAACUGAGCGGAUAACCUCUCUAUGG
RNA 2: GGGAAUGGAUCCACAUCUACGAAUUCGUACCAUACGAGAGGUUAUCCGCGUCACCGAGAUCGGAAGAGCACACGU
B10: target 1 insG 3' of 19,insA 3' of 3 (mixed)
RNA 1: CACCCGUGCAAAAAUGCAGGGGUCUAAAACUGAGCGGAUAACCUCUCUAUGG
RNA 2: GGGAAUGGAUCCACAUCUACGAAUUCGUACCAUGAGAGAGGUUAUCCGCUACACCGAGAUCGGAAGAGCACACGU
B11: target 1 G17A (mixed)
RNA 1: CACCCGUGCAAAAAUGCAGGGGUCUAAAACUGAGCGGAUAACCUCUCUAUGG
RNA 2: GGGAAUGGAUCCACAUCUACGAAUUCGUACCAUAAAGAGGUUAUCCGCUCACCGAGAUCGGAAGAGCACACGU
B12: target 1 U8G,G17C (mixed)
RNA 1: CACCCGUGCAAAAAUGCAGGGGUCUAAAACUGAGCGGAUAACCUCUCUAUGG
RNA 2: GGGAAUGGAUCCACAUCUACGAAUUCGUACCAUACAGAGGUUAGCCGCUCACCGAGAUCGGAAGAGCACACGU
B13: target 1 insU 3' of 7,insU 3' of 4 (mixed)
RNA 1: CACCCGUGCAAAAAUGCAGGGGUCUAAAACUGAGCGGAUAACCUCUCUAUGG
RNA 2: GGGAAUGGAUCCACAUCUACGAAUUCGUACCAUAGAGAGGUUAUCUCGCUUCACCGAGAUCGGAAGAGCACACGU
B14: target 1 C7U,G15U (mixed)
RNA 1: CACCCGUGCAAAAAUGCAGGGGUCUAAAACUGAGCGGAUAACCUCUCUAUGG
RNA 2: GGGAAUGGAUCCACAUCUACGAAUUCGUACCAUAGAUAGGUUAUUCGCUCACCGAGAUCGGAAGAGCACACGU
B15: target 1 A1G,G17A (mixed)
RNA 1: CACCCGUGCAAAAAUGCAGGGGUCUAAAACUGAGCGGAUAACCUCUCUAUGG
RNA 2: GGGAAUGGAUCCACAUCUACGAAUUCGUACCAUAAAGAGGUUAUCCGCUCGCCGAGAUCGGAAGAGCACACGU
B16: target 1 insU 3' of 18,insU 3' of 9 (mixed)
RNA 1: CACCCGUGCAAAAAUGCAGGGGUCUAAAACUGAGCGGAUAACCUCUCUAUGG
RNA 2: GGGAAUGGAUCCACAUCUACGAAUUCGUACCAUAUGAGAGGUUAUUCCGCUCACCGAGAUCGGAAGAGCACACGU
B17: target 1 G5U,C7U (mixed)
RNA 1: CACCCGUGCAAAAAUGCAGGGGUCUAAAACUGAGCGGAUAACCUCUCUAUGG
RNA 2: GGGAAUGGAUCCACAUCUACGAAUUCGUACCAUAGAGAGGUUAUUCUCUCACCGAGAUCGGAAGAGCACACGU
B18: target 1 A1U,G17A (mixed)
RNA 1: CACCCGUGCAAAAAUGCAGGGGUCUAAAACUGAGCGGAUAACCUCUCUAUGG
RNA 2: GGGAAUGGAUCCACAUCUACGAAUUCGUACCAUAAAGAGGUUAUCCGCUCUCCGAGAUCGGAAGAGCACACGU
B19: target 1 A1C,G17A (mixed)
RNA 1: CACCCGUGCAAAAAUGCAGGGGUCUAAAACUGAGCGGAUAACCUCUCUAUGG
RNA 2: GGGAAUGGAUCCACAUCUACGAAUUCGUACCAUAAAGAGGUUAUCCGCUCCCCGAGAUCGGAAGAGCACACGU
B20: target 1 complement block 6-13 (mixed)
RNA 1: CACCCGUGCAAAAAUGCAGGGGUCUAAAACUGAGCGGAUAACCUCUCUAUGG
RNA 2: GGGAAUGGAUCCACAUCUACGAAUUCGUACCAUAGAGACCAAUAGGGCUCACCGAGAUCGGAAGAGCACACGU
B21: target 1 insC 3' of 20,insA 3' of 10 (mixed)
RNA 1: CACCCGUGCAAAAAUGCAGGGGUCUAAAACUGAGCGGAUAACCUCUCUAUGG
RNA 2: GGGAAUGGAUCCACAUCUACGAAUUCGUACCACUAGAGAGGUUAAUCCGCUCACCGAGAUCGGAAGAGCACACGU
B22: target 1 C6A,U11A (mixed)
RNA 1: CACCCGUGCAAAAAUGCAGGGGUCUAAAACUGAGCGGAUAACCUCUCUAUGG
RNA 2: GGGAAUGGAUCCACAUCUACGAAUUCGUACCAUAGAGAGGAUAUCAGCUCACCGAGAUCGGAAGAGCACACGU
B23: target 1 insA 3' of 22,insC 3' of 17 (mixed)
RNA 1: CACCCGUGCAAAAAUGCAGGGGUCUAAAACUGAGCGGAUAACCUCUCUAUGG
RNA 2: GGGAAUGGAUCCACAUCUACGAAUUCGUACACAUAGCAGAGGUUAUCCGCUCACCGAGAUCGGAAGAGCACACGU

For the data set, the target named is T1, EsCas13d, nuclease-dead (Eubacterium siraeum, UniProt B0MS50, R295A;H300A;R849A;H854A).
T1 sequence: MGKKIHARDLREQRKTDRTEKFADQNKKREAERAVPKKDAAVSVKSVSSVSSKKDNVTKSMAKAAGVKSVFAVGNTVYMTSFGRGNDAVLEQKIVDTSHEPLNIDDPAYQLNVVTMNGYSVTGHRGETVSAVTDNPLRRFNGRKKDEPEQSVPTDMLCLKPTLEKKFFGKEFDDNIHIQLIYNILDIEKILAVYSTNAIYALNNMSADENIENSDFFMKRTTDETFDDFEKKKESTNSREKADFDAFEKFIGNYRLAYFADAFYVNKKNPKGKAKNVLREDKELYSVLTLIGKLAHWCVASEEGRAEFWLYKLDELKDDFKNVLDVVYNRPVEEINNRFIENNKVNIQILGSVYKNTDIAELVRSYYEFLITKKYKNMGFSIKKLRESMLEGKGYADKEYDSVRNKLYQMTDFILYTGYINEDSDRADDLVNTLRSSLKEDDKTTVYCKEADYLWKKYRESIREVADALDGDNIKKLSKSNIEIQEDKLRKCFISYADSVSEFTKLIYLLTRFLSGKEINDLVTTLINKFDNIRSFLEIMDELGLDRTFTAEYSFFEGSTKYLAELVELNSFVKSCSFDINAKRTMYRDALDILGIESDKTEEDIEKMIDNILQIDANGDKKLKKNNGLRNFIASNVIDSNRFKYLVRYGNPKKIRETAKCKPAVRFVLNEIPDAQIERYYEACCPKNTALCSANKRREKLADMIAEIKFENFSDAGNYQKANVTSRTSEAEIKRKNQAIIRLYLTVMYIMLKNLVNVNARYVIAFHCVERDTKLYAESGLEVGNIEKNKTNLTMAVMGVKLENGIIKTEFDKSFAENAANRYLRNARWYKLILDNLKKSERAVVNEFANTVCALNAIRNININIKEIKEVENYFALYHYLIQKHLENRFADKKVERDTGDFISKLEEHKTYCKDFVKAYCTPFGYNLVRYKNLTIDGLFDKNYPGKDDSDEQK
Nature of the data set: crRNA (strand 1, pre-loaded); Mg2+; 40 mM Tris-HCl pH 7.5, 150 mM NaCl, 6 mM MgCl2, 1 mM DTT, 0.1% Tween-20, 0.2 mg/ml BSA; 25 C; 10 min per concentration, then washed. Particulars: tags: His6-TwinStrep-SUMO cleaved; N-terminal SNAP kept (SNAP-Surface 488); label: 3' end held by stalled T7 RNA polymerase.
For B1, the Kd turned out to be 3.08 ± 0.21 nM.
With B2 the figure was 7.33 ± 0.33 nM; with B3, 34.1 ± 2.7 nM.
B4: binding was characterised by a dissociation constant (Kd) of 64 ± 7 nM.
For the molecule B5, binding was characterised by a dissociation constant (Kd) of 7.45 ± 0.24 nM.
In the case of B6, binding was put at a Kd of 50 ± 12 nM.
B7 registered a Kd of 14.2 ± 0.4 nM.
In the case of B8, the Kd was 45 ± 6 nM.
Molecule B9 yielded a Kd of 35.7 ± 2 nM.
Consider B10, for which binding was characterised by a dissociation constant (Kd) of 49 ± 5 nM.
In turn, B11 showed a Kd of 27.4 ± 1.7 nM.
B12 gave a Kd of 72 ± 15 nM.
B13 came in with a Kd of 15.2 ± 0.6 nM.
In turn, B14 had a Kd of 13.1 ± 1 nM.
With B15 the figure was 41 ± 8 nM.
The molecule B16 gave a Kd of 49 ± 8 nM.
For B17 the value was 53 ± 6 nM; for B18, 36 ± 10 nM.
B19 showed a Kd of about 45 nM.
Turning to B20, the Kd stood at 92 ± 15 nM.
As for B21, the Kd was 10.1 ± 0.4 nM.
In the case of B22, the Kd was determined as 28.1 ± 1.7 nM.
B23: binding was put at a Kd of 47 ± 19 nM.

The Kd is the concentration at which binding is half-saturated. A lower Kd goes with higher affinity.

The values are drawn from PMC10786891, “Massively parallel profiling of RNA-targeting CRISPR-Cas13d”.
